Results on one substance are retold here after publication PMC11586414.

This experiment addresses AMPylated HEPN^Lpg (Legionella pneumophila Philadelphia 1) (UniProt Q5ZRG2). Nature of the experiment: crystal structure.

With “AMPylated HEPN^Lpg (from UniProt Q5ZRG2 1-139) (natural protein)”, the stoichiometry N stood at 4.
